Measurements taken from patent publication US20240131155A1, “T CELLS FOR USE IN THERAPY” (Erasmus University Medical Center Rotterdam, priority 2021, published 2024).
Peptide text beside a SMILES is read from it.

Legend:
HLA-A2 = target: T1, HLA-A2 (Homo sapiens, UniProt P04439, D140Y/D185E/D98H/E176V/E277Q/G131W/G231S/I119V/I121R/I166T/I218V/L300P/L318F/N151K/N90K/P208A/P217A/Q86G/Q94H/R138H/R169H/T345S); experiment: HLA-A2 stabilization assay using T2 cells; type: binding; conditions: Table 4 (Examples 1 and 2); EC50 of peptide titration on T2 cells; read-out: Affinity for HLA.A2.01
T1 construct: The HLA-A2 stabilization assay was performed using T2 cells; endogenous in cells; host or cells: T2 cells (LCLxT lymphoblastoid hybrid cell line 0.1743CEM.T2)

CD8+ T cells [1] = experiment: Enrichment of epitope-specific CD8 T cells from healthy donors, epitope-specific IFNg production (ELISA); type: cell-based, human; conditions: Table 4; positive co-cultures / co-cultures tested
Experimental: (§1) Enrichment of epitope-specific CD8 T cells was performed according to the protocol described by Butler et al., Clin Cancer Res.;13(6):1857-1867 (2007), doi:10.1158/1078-0432, but included the following amendments. CD8+ T lymphocytes were collected from PBMCs by magnetic-activated cell sorting (MACS) according to the CD8 isolation kit (Miltenyi Biotec). CD8+ T cells with >95% purity were subsequently cultured in T cell medium supplemented with IL-2 (36 IU/mL; but no gentamycin) for 1 day, after which expansion cycles started. K562ABC cells (kindly provided by prof. Bruce Levine, University of Pennsylvania, PA) were loaded with 10 μg/ml ROPN1 and/or ROPN1B peptide and incubated for 5 h at RT in serum-free medium, after which cells were washed and fixed with 0,1% paraformaldehyde. After washing, K562ABC cells were suspended at 0.1×10^6/mL and co-cultured with T cells in a 1:20 ratio. IL-2 (36 IU/mL) and IL-15 ([…]) were added at days 1 and 3 days after start of co-culture, and after 6 days, T cells were counted, suspended at 2×10^6/mL and rested for 1 day, after which the next cycle commenced (this schedule continued up to 4 or 5 cycles). Following 4 and 5 cycles, T cells were stained with pMHC multimers (HLA*0201/MLN, Immudex, Copenhagen, Denmark). pMHC-PE were pre-incubated at RT for 10 min followed by incubation with 7AAD, anti-CD3-FITC and anti-CD8-APC for 20 min. Cells were fixed with 1% paraformaldehyde and TCR expression was measured with flow cytometry and analyzed using FlowJoX software. FIG. 4A schematically depicts the procedure to enrich epitope-specific T cells, and obtainthe corresponding TCR genes.
Enriched T cells were tested for ROPN1 and/or ROPN1B epitope-specific IFNY production. To this end, T2 cells (4×10^6/mL) were loaded with peptide (20 ng/mL) for 30 min. T cells (2×10^5) were cultured in a 1:1 ratio with T2 cells in a round bottom 96-wells plate, and the next day supernatant was collected and IFN-γ production was measured with an Enzyme-linked immunosorbent assay (ELISA, Invitrogen) according to manufacturer's protocol (FIG. 4B). T2 cells without peptide were included as a negative control; and staphylococcal enterotoxin B (0.1 μg, Sigma) was used as a positive control.
Enrichment of epitope-specific T cells was performed by co-culturing naïve T cells with CD11c-positive cells that were loaded with peptide. PBMCs were passed through a cell strainer (70 μm) and used for the isolation of naïve T cells and CD11c cells. To isolate CD11c-positive cells (typically dendritic cells, DC), PBMCs were stained for 10 mM at 4° C. with Fc block (10 μL/10^7 PBMCs, BD Pharmingen, Vianen, the Netherlands), after which cells were stained with CD11c-PE antibody (10 μL/10^7 PBMCs, BD Pharmingen) for 30 mM at 4° C., washed, and incubated with PE beads (10 μL/10^7 PBMCs, Miltenyi Biotech, Bergisch Gladbach, Germany) for another […] at 4° C. After washing, cells were dissolved in magnetic-activated cell sorting (MACS) buffer and passed through a MACS LS column (Miltenyi Biotec) to positively select CD11c cells. After selection, CD11c cells were irradiated with 30 Gy, and cultured overnight in a 24-wells plate (1×10^6/mL) in RPMI medium supplemented with 1% human serum (Sanquin), 1% antibiotics, […] L-glutamine, a DC maturation cocktail (a mixture of GM-CSF (10 ng/mL, ImmunoTools, Germany), IL-4 (10 ng/mL, ImmunoTools), LPS (100 ng/mL, Invitrogen, Goteborg, Sweden) and IFNY (10 ng/mL, Preprotech, London, United Kingdom)), as well as peptide (10 pg/mL). Naïve T cells were isolated with use of the Naïve T Cell isolation kit (Miltenyi Biotec) according to the manufacturer's protocol, and suspended in RPMI medium supplemented with 5% human serum (Sanquin), 1% antibiotics, […] L-glutamine and IL-7 (5 ng/mL, BD Pharmingen). The run-through of the naïve T cell selection was frozen down and used for re-stimulation of epitope-specific T cells. […]

CD8+ T cells [2] = experiment: peptide:MHC multimer/tetramer staining of enriched T cells (flow cytometry); type: cell-based, human; conditions: Table 4; enriched T cells after enrichment cycles
Experimental: as §1
Following enrichment, T cells were tested for ROPN1 and/or ROPN1B epitope-specific IFNY production. To this end, T2 cells (1×10^6/mL) were loaded with peptide (20 ng/mL) for 30 min, after which T cells (1×10^5) were cultured in a 1:1 ratio with T2 cells in a round bottom 96-wells plate for 18 h. Supernatant was collected and IFN-γ production was measured with an Enzyme-linked immunosorbent assay (ELISA, BioLegend) according to the manufacturer's protocol (FIG. 9A). T2 cells loaded with an irrelevant peptide were included as a negative control. T cell IFNg production was considered epitope-specific in case levels exceeded 200 pg/ml, and levels were minimally twice as high as for irrelevant peptide (see for full listing of criteria, FIG. 8). T cells that fulfilled these criteria were stained with peptide:MHC (pMHC) tetramers to determine the frequency of epitope-specific T cells. Empty Loadable HLA Tetramers (5 μL, Tetramer shop, Kongens Lyngby, Denmark) were incubated with 0.5 μL peptide (200 μM) for 30 min on ice. Complexes of pMHC were centrifuged (3300 g, 5 min) and incubated with 0.1×10^6 T cells for 15 min at 37° C. in the dark. Next, an antibody cocktail containing CD3-FITC (1:30, BD) and CD8-APC (1:300, eBiosciences) was added and incubated for an additional 30 min at 4° C. in the dark. Finally, T cells were washed twice and fixed with 1% paraformaldehyde (PFA), after which events were acquired with FACSCelesta (BD) and analyzed using FlowJoX software.

[3] = system: ROPN1 or ROPN1B over-expressing MDA-MB231 tumor cells; experiment: IFNg production of TCR T cells co-cultured with ROPN1 or ROPN1B over-expressing tumor cells (endogenously processed epitope); type: cell-based, human; conditions: Table 4; responding TCRs / TCRs tested, T cells transduced with TCR specific for the epitope
Experimental: In a first series of in vitro tests, TCR-transduced T cells (6×10^4/well in a 96-well plate) were co-cultured with ROPN1 or ROPN1B over-expressing MDA-MB231 tumor cells (2×10^4/well) in a total volume of 200 μl of T cell medium for 24 h at 37° C. The ROPN1 or ROPN1B over-expressing tumor cells were generated as described under ‘generation and culture of cell lines and T cells’ (see above), and tumor cells were pre-treated 48 h with IFN-Y before co-culture with T cells. […] T cells that fulfilled these criteria (examples in FIG. 10A) were assessed for their sensitivity towards their cognate epitope. […] EC50 values were calculated using GraphPad Prism 5 software.

[4] = target: T2, HLA-A2 (HLA-A2:01) on T2 cells (human); experiment: HLA-A2 stabilization assay on T2 cells, peptide titration (Example 2, repeated); column Affinity for HLA.A2.01 (M)
T2 construct: detected with anti-HLA-A2 mAb BB7.2

[5] = target: T2, HLA-A2 (HLA-A2:01) on T2 cells; experiment: HLA-A2 stabilization assay on T2 cells (anti-HLA-A2-PE, flow cytometry), single peptide concentration [panel D]
[6] = target: T2, HLA-A2 (HLA-A2:01) on T2 cells; experiment: HLA-A2 stabilization assay on T2 cells, peptide titration, flow cytometry with anti-HLA-A2 BB7.2; column Affinity for HLA A2:01 (M)
[7] = target: T2, HLA-A2 (HLA-A2:01) on T2 cells; experiment: HLA-A2 stabilization assay on T2 cells (anti-HLA-A2-PE, flow cytometry), single peptide concentration 25 ug/mL [panel E]
[8] = target: T2, HLA-A2 (HLA-A2:01) on T2 cells; experiment: HLA-A2 stabilization assay on T2 cells, peptide titration; amplitude relative to that of reference peptide YLE [panel D]
[9] = target: T2, HLA-A2 (HLA-A2:01) on T2 cells; experiment: HLA-A2 stabilization assay on T2 cells, peptide titration; amplitude = highest data point corrected for baseline [panel E]
[10] = target: T2, HLA-A2 (HLA-A2:01) on T2 cells; experiment: HLA-A2 stabilization assay on T2 cells, peptide titration (Example 2); column Affinity for HLA.A2.01 (M)
[11] = target: T2, HLA-A2 (HLA-A2:01) on T2 cells; experiment: HLA-A2 stabilization assay on T2 cells, peptide titration; EC50 calculated with GraphPad [panel D]
[12] = target: T2, HLA-A2 (HLA-A2:01) on T2 cells; experiment: HLA-A2 stabilization assay on T2 cells (anti-HLA-A2-PE, flow cytometry), single peptide concentration [panel B; D00018 Figure 7 continued, panel D]

EC50 [4] [µM] | Minimum stability [5] [fold change over baseline] | EC50 [6] [µM] | Minimum stability [7] [fold change over baseline] | Amplitude [8] | Amplitude [9] | Molecule | also measured
 |  |  |  |  |  | CC[C@H](C)[C@H](NC(=O)[C@H](CC(C)C)NC(=O)CNC(=O)[C@H](CC(=O)O)NC(=O)[C@@H]1CCCN1C(=O)CNC(=O)[C@@H](NC(=O)[C@@H](NC(=O)[C@@H](N)CCC(=O)O)C(C)C)[C@@H](C)CC)C(=O)N[C@H](C(=O)N[C@H](C(=O)O)C(C)C)[C@@H](C)O (H-EVIGPDGLITV-OH; N-terminus and C-terminus assumed) | EC50 (HLA-A2): 0.655 µM; T cell responses observed (IFNg) against epitope (CD8+ T cells [1]): 2/2 co-cultures; pMHC staining % pMHC+ CD8+ in CD3+ (CD8+ T cells [2]): 8.25%; T cell responses observed (IFNg) against endogenously presented epitope [3]: 1/7 responses
3.43 | 1.14 | 3.28 | 1.32 | 0.739 relative to YLE | 2380 geometric mean normalized to baseline | FQFLYTYIA (Synthetic peptide) [Epitope 6 peptide FQFLYTYIA of ROPN1 and ROPN1B] | 
8.11 | 1.63 | 10.9 | 1.5 | 0.888 relative to YLE | 2710 geometric mean normalized to baseline | FLYTYIAKV (Synthetic peptide) [Epitope 4 (FLY-A) peptide FLYTYIAKV of ROPN1] | 
 | 1.42 |  |  | 0.593 relative to YLE |  | FLYTYIAEV (Synthetic peptide) [Epitope 10 (FLY-B) peptide FLYTYIAEV of ROPN1B] | EC50 [10]: 21.1 µM
 | 1.18 |  |  | 0.489 relative to YLE |  | GVTITKTLK (ROPN1A and ROPN1B, eluted) | EC50 [11]: 0.57 µM
 | 1.57 |  |  | 1.12 relative to YLE |  | EVIGPDGLITV (Synthetic peptide) [Epitope 11 (EVI) peptide EVIGPDGLITV of ROPN1B] | EC50 [10]: 0.655 µM
10.5 | 1.4 | 11.4 | 1.29 | 0.924 relative to YLE | 3480 geometric mean normalized to baseline | AQMWKVVNL (Synthetic peptide) [Epitope 8 peptide AQMWKVVNL of ROPN1 and ROPN1B] | 
4.4 | 1.26 | 4.35 | 1.18 | 0.844 relative to YLE | 2620 geometric mean normalized to baseline | KTLKIVCEV (Synthetic peptide) [Epitope 3 peptide KTLKIVCEV of ROPN1 and ROPN1B] | 
 | 1.14 |  |  | 0.38 relative to YLE |  | LPRIPFSTF (ROPN1B, eluted) | EC50 [11]: 0.0664 µM
38.2 | 1.2 | 91.2 | 1.19 | 0.842 relative to YLE | 2660 geometric mean normalized to baseline | KMLKEFAKA (Synthetic peptide) [Epitope 9 peptide KMLKEFAKA of ROPN1 and ROPN1B] | 
 | 0.92 |  |  |  |  | SALGVTITK (ROPN1A and ROPN1B, eluted) | binding result [12]: no binding
 | 1.08 |  | 1.17 |  |  | AELTPELLKI (Eluted from ROPN1B-overexpressing MDA-MB231 cells; mapped in silico to HLA-B40:01) [Epitope 16 peptide AELTPELLKI (10-mer derived from immunopeptidome)] | binding result [12]: no binding
2.84 | 1.26 | 3.16 | 1.37 | 0.852 relative to YLE | 2180 geometric mean normalized to baseline | ALACSALGV (Synthetic peptide) [Epitope 7 peptide ALACSALGV of ROPN1 and ROPN1B] | 
